Assay results reported in patent US20230346885A1 (published 2023).
Changes are numbered by the printed parent chain.

Columns and labels:
Assay in all cases: binding, other
HTR3A peptide on HLA [1] = target: T1, HTR3A peptide on HLA (human)
T1 peptide: AILNVDEKNQV

HTR3A peptide on HLA [2] = target: T2, HTR3A peptide on HLA (human)
T2 peptide: SLAETIFIV

HOXB13 peptide on HLA [3] = target: T3, HOXB13 peptide on HLA (human)
T3 peptide: YLDVSVVQT

KLK4 peptide on HLA [4] = target: T4, KLK4 peptide on HLA (human)
T4 peptide: FQNSYTIGL

KLK3 peptide on HLA = target: T5, KLK3 peptide on HLA (human)
T5 peptide: KVMDLPTQEPAL

KLK4 peptide on HLA [5] = target: T6, KLK4 peptide on HLA (human)
T6 peptide: KLYDPLYHPSM

DCAF4L2 peptide on HLA = target: T7, DCAF4L2 peptide on HLA (human)
T7 peptide: ILQDGQFLV

HOXB13 peptide on HLA [6] = target: T8, HOXB13 peptide on HLA (human)
T8 peptide: SLSERQITI

B1: TCR of SEQ ID NOs 379 and 380 (TCR, V domains shown)
Valpha: KQEVTQIPAALSVPEGENLVLNCSFTDSAIYNLQWFRQDPGKGLTSLLLIQSSQREQTSGRLNASLDKSSGRSTLYIAASQPGDSATYLCAVSPFDLYGQNFVFGPGTRLSVLP
Vbeta: NAGVTQTPKFQVLKTGQSMTLQCAQDMNHNSMYWYRQDPGMGLRLIYYSASEGTTDKGEVPNGYNVSRLNKREFSLRLESAAPSQTSVYFCASRGTLFDPQHFGDGTRLSIL
binding result (HTR3A peptide on HLA [1]): recognises

B2: TCR of SEQ ID NOs 385 and 386 (TCR, V domains shown)
Valpha: KQEVTQIPAALSVPEGENLVLNCSFTDSAIYNLQWFRQDPGKGLTSLLLIQSSQREQTSGRLNASLDKSSGRSTLYIAASQPGDSATYLCAVLTDSWGKLQFGAGTQVVVTP
Vbeta: NAGVTQTPKFRVLKTGQSMTLLCAQDMNHEYMYWYRQDPGMGLRLIHYSVGEGTTAKGEVPDGYNVSRLKKQNFLLGLESAAPSQTSVYFCASSYWGGNTEAFFGQGTRLTVV
binding result (HTR3A peptide on HLA [2]): recognises

B3: TCR of SEQ ID NOs 387 and 388 (TCR, V domains shown)
Valpha: B2 Valpha with L93S, T94G
Vbeta: NAGVTQTPKFQVLKTGQSMTLQCAQDMNHNSMYWYRQDPGMGLRLIYYSASEGTTDKGEVPNGYNVSRLNKREFSLRLESAAPSQTSVYFCASSYWGPNTEAFFGQGTRLTVV
binding result (HTR3A peptide on HLA [2]): recognises

B4: TCR of SEQ ID NOs 371 and 372 (TCR, V domains shown)
Valpha: KQEVTQIPAALSVPEGENLVLNCSFTDSAIYNLQWFRQDPGKGLTSLLLIQSSQREQTSGRLNASLDKSSGRSTLYIAASQPGDSATYLCAVRHDYQLSFGAGTTVTVRA
Vbeta: NAGVTQTPKFQVLKTGQSMTLQCAQDMNHEYMSWYRQDPGMGLRLIHYSVGAGITDQGEVPNGYNVSRSTTEDFPLRLLSAAPSQTSVYFCASSRIGQRASFFGSGTRLTVV
binding result (HOXB13 peptide on HLA [3]): recognises

B5: TCR of SEQ ID NOs 381 and 382 (TCR, V domains shown)
Valpha: KQEVTQIPAALSVPEGENLVLNCSFTDSAIYNLQWFRQDPGKGLTSLLLIQSSQREQTSGRLNASLDKSSGRSTLYIAASQPGDSATYLCAVRPADSWGKLQFGAGTQVVVTP
Vbeta: NAGVTQTPKFRILKIGQSMTLQCTQDMNHNYMYWYRQDPGMGLKLIYYSVGAGITDKGEVPNGYNVSRSTTEDFPLRLELAAPSQTSVYFCASSYSLGELFFGEGSRLTVL
binding result (HTR3A peptide on HLA [1]): recognises

B6: TCR of SEQ ID NOs 383 and 384 (TCR, V domains shown)
Valpha: B5 Valpha with R93L, P94T, A95T
Vbeta: NAGVTQTPKFRILKIGQSMTLQCTQDMNHNSMYWYRQDPGMGLRLIYYSASEGTTDKGEVPNGYNVSRLNKREFSLRLESAAPSQTSVYFCASSELIGTVDYSNQPQHFGDGTRLSIL
binding result (HTR3A peptide on HLA [2]): recognises

B7: TCR of SEQ ID NOs 407 and 408 (TCR, V domains shown)
Valpha: KQEVTQIPAALSVPEGENLVLNCSFTDSAIYNLQWFRQDPGKGLTSLLLIQSSQREQTSGRLNASLDKSSGRSTLYIAASQPGDSATYLCAVRSYNTDKLIFGTGTRLQVFP
Vbeta: NAGVTQTPKFRILKIGQSMTLQCTQDMNHNYMYWYRQDPGMGLKLIYYSVGAGITDKGEVPNGYNVSRSTTEDFPLRLELAAPSQTSVYFCASSYSSWTEAFFGQGTRLTVV
binding result (KLK4 peptide on HLA [4]): recognises

B8: TCR of SEQ ID NOs 409 and 410 (TCR, V domains shown)
Valpha: B7 Valpha with R93T, S94A
Vbeta: NAGVTQTPKFRILKIGQSMTLQCTQDMNHNYMYWYRQDPGMGLKLIYYSVGAGITDKGEVPNGYNVSRSTTEDFPLRLLSAAPSQTSVYFCASSYYPGTSTEAFFGQGTRLTVV
binding result (KLK4 peptide on HLA [4]): recognises

B9: TCR of SEQ ID NOs 391 and 392 (TCR, V domains shown)
Valpha: QKEVEQNSGPLSVPEGAIASLNCTYSDRGSQSFFWYRQYSGKSPELIMSIYSNGDKEDGRFTAQLNKASQYVSLLIRDSQPSDSATYLCAVNSPGNARLMFGDGTQLVVKP
Vbeta: NAGVTQTPKFQVLKTGQSMTLQCAQDMNHEYMSWYRQDPGMGLRLIHYSVGAGITDQGEVPNGYNVSRSTTEDFPLRLLSAAPSQTSVYFCASSYWRGGLEQYFGPGTRLTVT
binding result (KLK3 peptide on HLA): recognises

B10: TCR of SEQ ID NOs 377 and 378 (TCR, V domains shown)
Valpha: KQEVTQIPVALSVPEGENLVLNCSFTDSAIYNLQWFRQDPGKGLTSLLLIQSSQREQTSGRLNASLDKSSGRSTLYIAASQPGDSATYLCAVTDSWGKLQFGAGTQVVVTP
Vbeta: NAGVTQTPKFQVLKTGQSMTLQCAQDMNHNSMYWYRQDPGMGLRLIYYSASEGTTDKGEVPNGYNVSRLNKREFSLRLESAAPSQTSLYFCASSEGPADTYGYTFGSGTRLTVV
binding result (HTR3A peptide on HLA [1]): recognises

B11: TCR of SEQ ID NOs 395 and 396 (TCR, V domains shown)
Valpha: B10 Valpha with V9A, T93L
Vbeta: NAGVTQTPKFRVLKTGQSMTLLCAQDMNHEYMYWYRQDPGMGLRLIHYSVGEGTTAKGEVPDGYNVSRLKKQNFLLGLESAAPSQTSVYFCASSGLLSPDTQYFGPGTRLKVL
binding result (KLK4 peptide on HLA [5]): recognises

B12: TCR of SEQ ID NOs 389 and 390 (TCR, V domains shown)
Valpha: QKEVEQNSGPLSVPEGAIASLNCTYSDRGSQSFFWYRQYSGKSPELIMSIYSNGDKEDGRFTAQLNKASQYVSLLIRDSQPSDSATYLCAVWGKSGGYNKLIFGAGTRLAVHP
Vbeta: NAGVTQTPKFGILKTGQSMTLQCAQDMNHEYMSWYRQDPGMGLRLIHYSVGAGITDKGEVPNGYNVSRSTTEDFPLRLELAAPSQTSVYFCASSYSSPLRQDNSPLHFGNGTRLTVT
binding result (KLK3 peptide on HLA): recognises

B13: TCR of SEQ ID NOs 373 and 374 (TCR, V domains shown)
Valpha: KQEVTQIPAALSVPEGENLVLNCSFTDSAIYNLQWFRQDPGKGLTSLLLIQSSQREQTSGRLNASLDKSSGRSTLYIAASQPGDSATYLCAANDPMDSSYKLIFGSGTRLLVRP
Vbeta: NAGVTQTPKFRVLKTGQSMTLLCAQDMNHEYMYWYRQDPGMGLRLIHYSVGEGTTAKGEVPDGYNVSRLKKQNFLLGLESAAPSQTSVYFCASSPLDGWNYGYTFGSGTRLTVV
binding result (HOXB13 peptide on HLA [3]): recognises

B14: TCR of SEQ ID NOs 393 and 394 (TCR, V domains shown)
Valpha: AQSVTQLDSHVSVSEGTPVLLRCNYSSSVPPYLFWYVQYPNQGLQLLLKYTTGATLVKGINGFEAEFKKSETSFHLTKPSAHMSDAAEYFCAVSEDGNKLVFGAGTILRVKS
Vbeta: AAGVIQSPRHLIKEKRETATLKCYPIPRHDTVYWYQQGPGQDPQFLISFYEKMQSDKGSIPDRFSAQQFSDYHSELNMSSLELGDSALYFCASRLTGVSGEGDYGYTFGSGTRLTVV
binding result (KLK3 peptide on HLA): recognises

B15: TCR of SEQ ID NOs 361 and 362 (TCR, V domains shown)
Valpha: KQEVTQIPAALSVPEGENLVLNCSFTDSAIYNLQWFRQDPGKGLTSLLLIQSSQREQTSGRLNASLDKSSGRSTLYIAASQPGDSATYLCAVDTGRRALTFGSGTRLQVQP
Vbeta: NAGVTQTPKFQVLKTGQSMTLQCAQDMNHEYMYWYRQDPGMGLRLIHYSVGEGTTAKGEVPDGYNVSRLKKQNFLLGLESAAPSQTSVYFCASRDQINEKLFFGSGTQLSVL
binding result (DCAF4L2 peptide on HLA): recognises

B16: TCR of SEQ ID NOs 363 and 364 (TCR, V domains shown)
Valpha: B15 Valpha with D93N, T94L, R96A, R97Q, A98K, T100V, S103Q, Q108T, V109I, Q110N
Vbeta: B7 Vbeta with Y95S, S96F, S97D, W98R, T99D, R108K
binding result (DCAF4L2 peptide on HLA): recognises

B17: TCR of SEQ ID NOs 367 and 368 (TCR, V domains shown)
Valpha: KQEVTQIPAALSVPEGENLVLNCSFTDSAIYNLQWFRQDPGKGLTSLLLIQSSQREQTSGRLNASLDKSSGRSTLYIAASQPGDSATYLCAVRPHGQNFVFGPGTRLSVLP
Vbeta: NAGVTQTPKFRVLKTGQSMTLLCAQDMNHEYMYWYRQDPGMGLRLIHYSVGEGTTDKGEVPNGYNVSRLNKREFSLRLESAAPSQTSVYFCASSSLARETQYFGPGTRLLVL
binding result (HOXB13 peptide on HLA [6]): recognises

B18: TCR of SEQ ID NOs 399 and 400 (TCR, V domains shown)
Valpha: KQEVTQIPAALSVPEGENLVLNCSFTDSAIYNLQWFRQDPGKGLTSLLLIRSSQREQTSGRLNASLDKSSGRSTLYIAASQPGDSATYLCAVMSSQGGSEKLVFGKGTKLTVNP
Vbeta: NAGVTQTPKFRVLKTGQSMTLLCAQDMNHEYMYWYRQDPGMGLRLIHYSVGEGTTAKGEVPDGYNVSRLKKQNFLLGLESAAPSQTSVYFCASKGLVADTIYFGEGSWLTVV
binding result (KLK4 peptide on HLA [5]): recognises

B19: TCR of SEQ ID NOs 365 and 366 (TCR, V domains shown)
Valpha: KQEVTQIPAALSVPEGENLVLNCSFTDSAIYNLQWFRQDPGKGLTSLLLIQSSQREQTSGRLNASLDKSSGRSTLYIAASQPGDSATYLCAVGGYNKLIFGAGTRLAVHP
Vbeta: NAGVTQTPKFQVLKTGQSMTLQCAQDMNHNSMYWYRQDPGMGLRLIYYSASEGTTDKGEVPNGYNVSRSTTEDFPLRLLSAAPSQTSVYFCASSYQGTGELFFGEGSRLTVL
binding result (HOXB13 peptide on HLA [6]): recognises

B20: TCR of SEQ ID NOs 397 and 398 (TCR, V domains shown)
Valpha: B19 Valpha with V92A, N96Q, L98V, I99T, A102T, R105K, A107Q, H109I
Vbeta: B5 Vbeta with E79L, L80S, S94R, Y95R, S96P, L97T
binding result (KLK4 peptide on HLA [5]): recognises

B21: TCR of SEQ ID NOs 369 and 370 (TCR, V domains shown)
Valpha: B19 Valpha with N96Q, L98V, I99T, A102T, R105K, A107Q, H109I
Vbeta: NAGVTQTPKFQVLKTGQSMTLQCAQDMNHNSMYWYRQDPGMGLRLIYYSASEGTTDKGEVPNGYNVSRSTTEDFPLRLLSAAPSQTSVYFCASSYQGGNEKLFFGSGTQLSVL
binding result (HOXB13 peptide on HLA [6]): recognises

B22: TCR of SEQ ID NOs 375 and 376 (TCR, V domains shown)
Valpha: B4 Valpha with Q97K
Vbeta: B4 Vbeta
binding result (HOXB13 peptide on HLA [3]): recognises
